Columns and labels:
Settings in all cases: protein: recombinant; tags: GST; label: 5' 6FAM on top strand; blunt
[1] = biological target: T1, FOXM1 DBD WT (GST fusion) (UniProt Q08050 235-327); assay: fluorescence polarization; FP: 50 mM Tris-HCl pH 7.5, 5 mM MgCl2, 1 mM DTT, 2% glycerol; protein 80 nM-5 uM; temperature not stated
T1 sequence: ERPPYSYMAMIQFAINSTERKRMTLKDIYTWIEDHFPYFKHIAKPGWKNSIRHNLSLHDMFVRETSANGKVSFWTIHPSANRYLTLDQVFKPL

FOXM1 DBD H287A = biological target: T2, FOXM1 DBD H287A (UniProt Q08050 235-327, H287A); assay: as above
T2 sequence: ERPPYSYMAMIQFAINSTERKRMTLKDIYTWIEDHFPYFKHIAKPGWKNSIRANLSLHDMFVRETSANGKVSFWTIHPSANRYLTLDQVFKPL

[2] = biological target: T3, FOXM1B DBD WT (GST fusion) (UniProt Q08050-2 235-327); assay: as above
T3 sequence: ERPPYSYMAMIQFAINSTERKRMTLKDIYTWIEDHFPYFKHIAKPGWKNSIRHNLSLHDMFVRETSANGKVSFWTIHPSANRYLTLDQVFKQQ

FOXM1 DBD S290A = biological target: T4, FOXM1 DBD S290A (UniProt Q08050 235-327, S290A); assay: fluorescence polarization; up to 5 uM protein; FP: 50 mM Tris-HCl pH 7.5, 5 mM MgCl2, 1 mM DTT, 2% glycerol; protein 80 nM-5 uM; temperature not stated
T4 sequence: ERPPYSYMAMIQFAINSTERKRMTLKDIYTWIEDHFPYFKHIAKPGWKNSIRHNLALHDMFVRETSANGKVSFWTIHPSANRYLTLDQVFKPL

FOXM1 DBD R286A = biological target: T5, FOXM1 DBD R286A (UniProt Q08050 235-327, R286A); assay: as above
T5 sequence: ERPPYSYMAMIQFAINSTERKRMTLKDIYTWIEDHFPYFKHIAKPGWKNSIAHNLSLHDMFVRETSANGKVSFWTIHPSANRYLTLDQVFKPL

[3] = biological target: T3, FOXM1B DBD WT (GST fusion); assay: EMSA; FP: 50 mM Tris-HCl pH 7.5, 5 mM MgCl2, 1 mM DTT, 2% glycerol; protein 80 nM-5 uM; temperature not stated

B1: FKH consensus 16-mer (dsDNA)
DNA 1: AAACAAACAAACAATC
DNA 2: GATTGTTTGTTTGTTT
In the case of B1, the Kd [1] is reported as 1100 ± 20 nM, the Kd (FOXM1 DBD H287A) is reported as 3040 ± 100 nM and the Kd [2] is reported as 224 ± 45 nM. The binding result (FOXM1 DBD S290A) was “no binding”, the binding result (FOXM1 DBD R286A) was “no binding” and the Kd [3] was 346 ± 24 nM.

B2: MYC P2 TATA box 16-mer (dsDNA)
DNA 1: TGAGTATAAAAGCCGG
DNA 2: CCGGCTTTTATACTCA
B2 was tested, and the Kd [2] was 177 ± 79 nM.

B3: HP1BP3 16-mer (dsDNA)
DNA 1: CCTCAGCCAATCGGGG
DNA 2: CCCCGATTGGCTGAGG
Binder B3 has a Kd [2] of 489 ± 233 nM.

B4: CCNB2 16-mer (dsDNA)
DNA 1: ACGCGGTATTTGAATC
DNA 2: GATTCAAATACCGCGT
B4 was tested, and the Kd [2] was 436 ± 147 nM.

Reference: article PMC4492089, “FOXM1 binds directly to non-consensus sequences in the human genome”
